Experimental data taken from publication PMC10790385, “Intracellular delivery of Parkin-RING0-based fragments corrects Parkin-induced mitochondrial dysfunction through interaction with SLP-2” (Journal of Translational Medicine, 2024).

Columns and labels:
[1] = molecular target: T1, recombinant human Parkin fragment aa 138-465 (human, UniProt O60260 138-465); experiment: far-Western, overlay or dot blot; 2 µg recombinant Parkin proteins (aa 1-465 and aa 138-465) separated by SDS-PAGE and transferred to immobilon membrane, incubated for 6 h with 80 µg recombinant SLP-2, probed with anti-SLP-2 antibody; conditions: both partners purified
T1 construct: SUMO cleaved with ULP-1 protease; source: E. coli One Shot BL21(DE3)pLysS, purified (IMAC, nondenaturing)
T1 sequence (looked up): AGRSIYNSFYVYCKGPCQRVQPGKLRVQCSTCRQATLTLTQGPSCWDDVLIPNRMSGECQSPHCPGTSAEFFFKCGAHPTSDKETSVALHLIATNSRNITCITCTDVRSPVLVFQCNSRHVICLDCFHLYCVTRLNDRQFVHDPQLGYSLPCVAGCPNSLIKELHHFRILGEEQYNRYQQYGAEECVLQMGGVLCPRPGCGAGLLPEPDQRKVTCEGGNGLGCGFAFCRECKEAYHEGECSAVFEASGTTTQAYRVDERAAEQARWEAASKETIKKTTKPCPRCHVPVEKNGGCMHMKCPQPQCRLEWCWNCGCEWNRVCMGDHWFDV

[2] = molecular target: T2, recombinant full-length human Parkin protein (aa 1-465) (human, UniProt O60260 1-465); experiment: far-Western, overlay or dot blot; 2 µg recombinant SLP-2 separated by SDS-PAGE and transferred to a membrane, incubated with 60 µg recombinant Parkin, probed with anti-Parkin antibody; conditions: both partners purified
T2 construct: SUMO cleaved with ULP-1 protease; also called recombinant Parkin; source: E. coli One Shot BL21(DE3)pLysS, purified (IMAC, nondenaturing)

binding result [1]: binds | binding result [2]: binds
B1: recombinant human SLP-2 protein (aa 41-356) (domain or fragment, UniProt Q9UJZ1 41-356, looked up)
chain: VPQQEAWVVERMGRFHRILEPGLNILIPVLDRIRYVQSLKEIVINVPEQSAVTLDNVTLQIDGVLYLRIMDPYKASYGVEDPEYAVTQLAQTTMRSELGKLSLDKVFRERESLNASIVDAINQAADCWGIRCLRYEIKDIHVPPRVKESMQMQVEAERRKRATVLESEGTRESAINVAEGKKQAQILASEAEKAEQINQAAGEASAVLAKAKAKAEAIRILAAALTQHNGDAAASLTVAEQYVSAFSKLAKDSNTILLPSNPGDVTSMVAQAMGVYGALTKAPVPGTPDSLSSGSSRDVQGTDASLDEELDRVKMS
notes: Stomatin-like protein 2, human, aa 41-356; SUMO cleaved with ULP-1 protease; also called recombinant SLP-2; source: E. coli One Shot BL21(DE3)pLysS, purified (IMAC, nondenaturing)
